Literature values, collected in publication PMC4117600.
pKd: −log10 of the molar value. Where two headings read alike, the source gives them in different places.

Key:
CCR4 (Homo sapiens) [1] = target: CCR4 (Homo sapiens) (UniProt P51679)
CCR4 (Homo sapiens) [2] = target: CCR4 (Homo sapiens) (UniProt P51679); remark: listed apart in the source

CCR4 (Homo sapiens), sequence (P51679 whole entry): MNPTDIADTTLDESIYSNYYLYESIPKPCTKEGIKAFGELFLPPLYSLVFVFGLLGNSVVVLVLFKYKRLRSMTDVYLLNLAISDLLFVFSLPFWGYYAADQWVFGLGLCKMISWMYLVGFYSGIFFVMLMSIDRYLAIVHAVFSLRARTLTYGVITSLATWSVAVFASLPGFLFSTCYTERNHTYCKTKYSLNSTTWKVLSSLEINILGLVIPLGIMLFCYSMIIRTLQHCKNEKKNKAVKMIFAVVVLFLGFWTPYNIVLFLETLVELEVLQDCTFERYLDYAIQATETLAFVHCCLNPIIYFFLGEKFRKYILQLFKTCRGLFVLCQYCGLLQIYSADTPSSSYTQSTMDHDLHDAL
CCL22, sequence (O00626 25-93): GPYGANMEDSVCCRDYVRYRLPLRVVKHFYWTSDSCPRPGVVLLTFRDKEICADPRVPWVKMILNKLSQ
CCL17, sequence (Q92583 24-94): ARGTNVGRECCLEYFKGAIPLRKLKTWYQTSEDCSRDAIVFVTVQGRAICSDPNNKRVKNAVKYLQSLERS

| pKd (CCR4 (Homo sapiens) [1]) | pKd (CCR4 (Homo sapiens) [2]) | Substance |
| --- | --- | --- |
| 8.68 | – | CCL17 (from UniProt Q92583) |
| – | 9.74 | CCL22 (from UniProt O00626) |
